± gives the standard deviation of the averaged measurements.
Key:
Saccharomyces cerevisiae [1] = assay: protein stability index of tFT-peptide fusion (C-terminal peptide) (PSI (0-1 scale)); higher = more stable (slower turnover); conditions: genetic background: wild type; temperature: 30 C
Saccharomyces cerevisiae [2] = assay: as above
Description: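 MPS profiling in S. cerevisiae of the tFT-X12 degron library: putative degron peptides plus stable controls, 12 aa, fused to the C-terminus of a sfGFP-mCherry timer. Cells are FACS-sorted into 8 mCherry/sfGFP bins and deep-sequenced. PSI runs from 0 (unstable) to 1 (stable). Backgrounds are wild type, das1Δ and doa10Δ at 30 °C, and wild type, das1Δ, cdc34-1 and cdc53-1 at 37 °C; 2-3 technical replicates each.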

[3] = genetic background: cdc34-1, temperature: 37 C
[4] = genetic background: cdc53-1, temperature: 37 C
[5] = genetic background: das1 deletion, temperature: 30 C
[6] = genetic background: das1 deletion, temperature: 37 C
[7] = genetic background: doa10 deletion, temperature: 30 C
[8] = genetic background: wild type, temperature: 30 C
[9] = genetic background: wild type, temperature: 37 C
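Also: PSI is a weighted mean of sequencing reads over stability bins, variants kept only with over 10 reads, mCherry proximal and sfGFP distal, peptide attached via GGGS linker.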

| Sequence | protein stability index (Saccharomyces cerevisiae [1]) | protein stability index (Saccharomyces cerevisiae [2]; [3]) | protein stability index (Saccharomyces cerevisiae [2]; [4]) | protein stability index (Saccharomyces cerevisiae [2]; [5]) | protein stability index (Saccharomyces cerevisiae [2]; [6]) | protein stability index (Saccharomyces cerevisiae [2]; [7]) | protein stability index (Saccharomyces cerevisiae [2]; [8]) | protein stability index (Saccharomyces cerevisiae [2]; [9]) |
| --- | --- | --- | --- | --- | --- | --- | --- | --- |
| GGGSRICIVRLS | 0.337 ± 0.077 | 0.654 ± 0.092 | 0.7229 ± 0.0024 | 0.636 ± 0.017 | 0.722 ± 0.0083 | 0.178 ± 0.025 | 0.197 ± 0.023 | 0.406 ± 0.03 |
| GGWVIVFMVGRG | 0.427 ± 0.02 | 0.523 ± 0.049 | 0.629 ± 0.084 | 0.362 ± 0.033 | 0.5982 ± 0.002 | 0.334 ± 0.0065 | 0.3607 ± 0.0035 | 0.535 ± 0.02 |
| GYVCVGLVYSVA | 0.337 ± 0.072 | 0.372 ± 0.041 | 0.411 ± 0.017 | 0.267 ± 0.038 | 0.463 ± 0.0037 | 0.216 ± 0.0035 | 0.249 ± 0.038 | 0.433 ± 0.0093 |
| GIALYVCFICVG | 0.245 ± 0.05 | 0.213 ± 0.0051 | 0.364 ± 0.013 | 0.253 ± 0.017 | 0.4325 ± 0.0026 | 0.137 ± 0.026 | 0.17 ± 0.015 | 0.276 ± 0.012 |
| NFFYLFLSFGFG | 0.436 ± 0.022 | 0.523 ± 0.076 | 0.565 ± 0.034 | 0.48 ± 0.025 | 0.588 ± 0.0086 | 0.46 ± 0.029 | 0.482 ± 0.03 | 0.552 ± 0.0068 |
| IWCQVGAFLVVF | 0.307 ± 0.027 | 0.218 ± 0.0075 | 0.257 ± 0.0071 | 0.209 ± 0.024 | 0.352 ± 0.0047 | 0.18 ± 0.01 | 0.198 ± 0.02 | 0.337 ± 0.0084 |
| RYEKIIKQINKQ | 0.268 ± 0.044 | 0.609 ± 0.062 | 0.738 ± 0.015 | 0.655 ± 0.037 | 0.7664 ± 0.0071 | 0.13 ± 0.034 | 0.164 ± 0.06 | 0.429 ± 0.011 |
| FAVLWFLYWCSW | 0.348 ± 0.063 | 0.347 ± 0.0065 | 0.376 ± 0.019 | 0.282 ± 0.026 | 0.422 ± 0.013 | 0.245 ± 0.025 | 0.261 ± 0.044 | 0.387 ± 0.0054 |
| GEAYVYLFVYSC | 0.25 ± 0.0051 | 0.4329 ± 0.0022 | 0.467 ± 0.0051 | 0.276 ± 0.036 | 0.541 ± 0.019 | 0.16 ± 0.012 | 0.173 ± 0.017 | 0.387 ± 0.0098 |
| HSVPPYPTPPPF | 0.463 ± 0.002 | 0.668 ± 0.054 | 0.739 ± 0.0011 | 0.337 ± 0.041 | 0.616 ± 0.0097 | 0.302 ± 0.016 | 0.372 ± 0.016 | 0.586 ± 0.025 |
| SLFVLLVSALLH | 0.345 ± 0.02 | 0.173 ± 0.029 | 0.32 ± 0.025 | 0.212 ± 0.025 | 0.38251 ± 0.0002 | 0.18 ± 0.0094 | 0.194 ± 0.033 | 0.328 ± 0.011 |
| AYFLKRSSILVR | 0.352 ± 0.017 | 0.311 ± 0.05 | 0.376 ± 0.015 | 0.241 ± 0.031 | 0.439 ± 0.011 | 0.2062 ± 0.002 | 0.217 ± 0.034 | 0.395 ± 0.011 |
| RGDWPVFIQVKA | 0.418 ± 0.05 | 0.285 ± 0.032 | 0.309 ± 0.04 | 0.262 ± 0.035 | 0.426 ± 0.022 | 0.205 ± 0.022 | 0.255 ± 0.043 | 0.387 ± 0.023 |
| PLFVLTILLFLC | 0.1706 ± 0.00068 | 0.165 ± 0.042 | 0.314 ± 0.036 | 0.258 ± 0.051 | 0.367 ± 0.017 | 0.156 ± 0.0098 | 0.137 ± 0.013 | 0.179 ± 0.0024 |
| WVDVAGIVAVAG | 0.522 ± 0.036 | 0.526 ± 0.021 | 0.55 ± 0.022 | 0.421 ± 0.026 | 0.5809 ± 0.0037 | 0.387 ± 0.0085 | 0.419 ± 0.016 | 0.5495 ± 0.003 |
| VFSAGFSTISLF | 0.704 ± 0.39 | 0.745 ± 0.037 | 0.792 ± 0.03 | 0.678 ± 0.049 | 0.789 ± 0.012 | 0.6674 ± 0.0061 | 0.666 ± 0.012 | 0.741 ± 0.011 |
| AVWVAVEVEAGR | 0.436 ± 0.026 | 0.468 ± 0.045 | 0.498 ± 0.025 | 0.331 ± 0.026 | 0.5447 ± 0.0044 | 0.3 ± 0.009 | 0.333 ± 0.023 | 0.53 ± 0.018 |
| CCLFFLVVFVGW | 0.255 ± 0.021 | 0.167 ± 0.0038 | 0.227 ± 0.027 | 0.191 ± 0.034 | 0.335 ± 0.027 | 0.194 ± 0.029 | 0.183 ± 0.019 | 0.274 ± 0.0075 |
| CSSFFLLLFFLF | 0.311 ± 0.019 | 0.351 ± 0.051 | 0.448 ± 0.018 | 0.335 ± 0.021 | 0.451 ± 0.029 | 0.301 ± 0.021 | 0.268 ± 0.01 | 0.407 ± 0.0056 |
| GLLAWGCVFWVV | 0.259 ± 0.014 | 0.402 ± 0.037 | 0.52 ± 0.01 | 0.336 ± 0.048 | 0.544 ± 0.01 | 0.167 ± 0.015 | 0.198 ± 0.017 | 0.3379 ± 0.00092 |
